Measurements reported in paper PMC4525287, “Auxiliary KCNE subunits modulate both homotetrameric Kv2.1 and heterotetrameric Kv2.1/Kv6.4 channels” (Scientific Reports, 2015).

Target: T1, unlabeled Kv2.1 (human, UniProt Q14721 1-858)
T1 sequence (looked up): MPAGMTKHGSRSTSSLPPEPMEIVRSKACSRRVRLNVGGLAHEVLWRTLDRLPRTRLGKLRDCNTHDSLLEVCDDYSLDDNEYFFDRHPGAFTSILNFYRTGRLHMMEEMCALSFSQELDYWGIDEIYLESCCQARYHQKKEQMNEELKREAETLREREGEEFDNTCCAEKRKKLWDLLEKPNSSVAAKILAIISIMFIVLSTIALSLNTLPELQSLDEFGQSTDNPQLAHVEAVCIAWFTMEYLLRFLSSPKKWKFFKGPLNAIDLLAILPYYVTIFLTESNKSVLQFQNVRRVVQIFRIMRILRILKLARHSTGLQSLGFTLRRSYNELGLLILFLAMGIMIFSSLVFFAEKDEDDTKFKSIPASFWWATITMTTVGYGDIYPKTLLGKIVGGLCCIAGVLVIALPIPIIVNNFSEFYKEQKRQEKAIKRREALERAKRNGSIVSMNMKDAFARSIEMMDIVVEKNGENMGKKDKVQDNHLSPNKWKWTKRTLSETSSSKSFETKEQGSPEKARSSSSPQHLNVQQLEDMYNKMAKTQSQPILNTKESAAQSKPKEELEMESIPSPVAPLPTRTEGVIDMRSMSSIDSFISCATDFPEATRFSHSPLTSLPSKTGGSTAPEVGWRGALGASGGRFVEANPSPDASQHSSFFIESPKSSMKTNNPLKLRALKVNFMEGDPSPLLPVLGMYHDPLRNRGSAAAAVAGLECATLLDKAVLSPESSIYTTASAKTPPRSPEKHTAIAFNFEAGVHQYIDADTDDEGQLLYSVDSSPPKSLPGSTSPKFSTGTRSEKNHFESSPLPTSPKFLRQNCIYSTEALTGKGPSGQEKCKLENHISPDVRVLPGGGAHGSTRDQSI
Test: cell-based or functional assay

fast component of the activation of Kv2.1/Kv6.4 heterotetramers on co-expression of (untagged) KCNE5 with Kv2.1 and Kv6.4 in HEK293 cells, between +20 mV and +70 mV (whole cell current recordings): ~2 fold
B1: C-terminally YFP-labeled KCNE5 (natural protein, human, UniProt Q9UJ90 1-142, looked up)
chain: MNCSESQRLRTLLSRLLLELHHRGNASGLGAGPRPSMGMGVVPDPFVGREVTSAKGDDAYLYILLIMIFYACLAGGLILAYTRSRKLVEAKDEPSQACAEHEWAPGGALTADAEAAAGSQAEGRRQLASEGLPALAQGAERV
